First the molecules themselves.
B1: SEQ ID NO: 7: parent CTGF-binding hNGAL lipocalin mutein (protein)
chain: QDSTSDLIPAPPLSKVPLQQNFQDNQFHGKWYVVGLAGNYGLRTDKRPSKMFATIYELKEDKSYDVTSVRFEQERCHYTIRTFVPGSQPGEFTTGSIKSRPGQTSSLVRVVSTNYNQHAMVFFKSVIQNREYFAITLYGRTKELTSELKENFIRFSKSLGLPENHIVFPVPIDQCIDG
modifications: lipocalin mutein
B2: SEQ ID NO: 25: parent CTGF-binding hNGAL lipocalin mutein (protein)
chain: QDSTSDLIPAPPLSKVPLQQNFQDNQFHGKWYVVGMAGNFRLREDKDPSKMGATIYELKEDKSYNVTQVQFDDKKCLYVIETFVPGSQPGEFTLGAIKSFPGFTSQLVRVVSTNYNQHAMVFFKKVYQNREVFWITLYGRTKELTSELKENFIRFSKSLGLPENHIVFPVPIDQCIDG
modifications: lipocalin mutein
B3: SEQ ID NO: 3: parent CTGF-binding hNGAL lipocalin mutein (protein)
chain: QDSTSDLIPAPPLSKVPLQQNFQDNQFHGKWYVVGRAGNNRLREDKDPPKMWATIYELKEDKSYNVTHVHFMTKKCRYIIDTFVPGSQPGEFTLGAIKSGPGMTSPLVRIVSTNYNQHAMVFFKWVNQNREWFTITLYGRTKELTSELKENFIRFSKSLGLPENHIVFPVPIDQCIDG
modifications: lipocalin mutein
B4: SEQ ID NO: 29: parent CTGF-binding hNGAL lipocalin mutein (protein)
chain: QDSTSDLIPAPPLSKVPLQQNFQDNQFHGKWYVVGWAGNIKLREDKDPFKMSATIYELKEDKSYNVTEVVFEQKKCHYIIKTFVPGSQPGEFTLGDIKSPPGETSSLVRVVSTNYNQHAMVFFKKVFQNREFFWITLYGRTKELTSELKENFIRFSKSLGLPENHIVFPVPIDQCIDG
modifications: lipocalin mutein
B5: SEQ ID NO: 9: parent CTGF-binding hNGAL lipocalin mutein (protein)
chain: QDSTSDLIPAPPLSKVPLQQNFQDNQFHGKWYVVGLAGNKILRIDKQPAKMFATIYELKEDKSYDVTSVRFEARSCSYTIKTFVPGSQPGEFTAGNIKSAPGQTSTLVRVVSTNYNQHAMVFFKHVSQNRETFVITLYGRTKELTSELKENFIRFSKSLGLPENHIVFPVPIDQCIDG
modifications: lipocalin mutein
B6: SEQ ID NO: 15: optimized CTGF-binding hNGAL lipocalin mutein (protein)
chain: B5 chain with H28Q, K40A, I44E, R74K, S77K, N96Y, S127T, T132I
modifications: lipocalin mutein
B7: SEQ ID NO: 74: fusion protein comprising two CTGF-binding lipocalin muteins (protein)
chain: QDSTSDLIPAPPLSKVPLQQNFQDNQFQGKWYVVGLAGNAILREDKQPAKMFATIYELKEDKSYDVTSVRFEAKSCKYTIKTFVPGSQPGEFTAGYIKSAPGQTSTLVRVVSTNYNQHAMVFFKHVTQNREIFVITLYGRTKELTSELKENFIRFSKSLGLPENHIVFPVPIDQCIDGGGGGSGGGGSGGGGSQDSTSDLIPAPPLSKVPLQQNFQDNQFQGKWYVVGWAGNVKLREDKQPQKMSATIYELKEDKSYDVTEVVFEQKKCHYIIKTFVPGSQPGEFTAGDIKSPPGYTSSLVRVVSTNYNQHAMVFFKKVSQNREFFWITLYGRTKELTSELKENFIRFSKSLGLPENHIVFPVPIDQCIDG
modifications: fusion protein
B8: SEQ ID NO: 23: optimized CTGF-binding hNGAL lipocalin mutein (protein)
chain: B5 chain with H28Q, L36V, K40A, I44P, R74K, S77K, A94S, N96Q, T132I
modifications: lipocalin mutein

Residue numbers refer to the chain shown, from its start.

Broadly, the Kd is the free concentration of one partner at which half of the binding sites on the other are occupied at equilibrium, for simple one-to-one binding.

One test addresses T1, Rat CTGF (Rattus norvegicus, UniProt Q9R1E9).
T1 construct: purchased R&D Systems
T1 sequence (Q9R1E9 25-347): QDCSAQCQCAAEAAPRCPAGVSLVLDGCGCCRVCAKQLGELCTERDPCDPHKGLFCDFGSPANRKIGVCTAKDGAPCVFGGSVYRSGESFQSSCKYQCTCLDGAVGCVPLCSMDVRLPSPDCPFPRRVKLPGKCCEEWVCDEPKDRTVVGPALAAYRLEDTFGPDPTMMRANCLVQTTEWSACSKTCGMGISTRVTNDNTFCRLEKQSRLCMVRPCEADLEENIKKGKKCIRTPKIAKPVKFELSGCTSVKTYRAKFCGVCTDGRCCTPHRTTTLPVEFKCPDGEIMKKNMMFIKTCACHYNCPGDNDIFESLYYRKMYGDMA
Nature of the test: SPR binding kinetics and affinity, rat CTGF. The settings on record: 25° C., 1:1 binding model. A digest of the protocol:
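Targets either amine-coupled to CM5 chip (300–1100 RU; Fc-tagged human, untagged rat/murine) or Fc-captured via anti-human IgG; muteins injected 180 s contact, 900–3600 s dissociation, 30 μL/min, 25° C. Double-referenced sensorgrams fit to 1:1 model giving kon, koff and KD.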
In general terms: In SPR one partner is held on a chip, and binding of the other changes the refractive index at the surface.
Consider B1, for which the Kd was determined as 0.0628 µM, the “Rat CTGF koff” value was determined as 0.00754 s⁻¹ and the “Rat CTGF kon” value was 120000 M⁻¹ s⁻¹.
B2: the Kd was 0.0277 µM, the “Rat CTGF koff” value came to 0.00129 s⁻¹ and the “Rat CTGF kon” value came out at 46500 M⁻¹ s⁻¹.
With B3, the Kd came to 0.0393 µM, the “Rat CTGF koff” value is 0.0117 s⁻¹ and the “Rat CTGF kon” value stood at 297000 M⁻¹ s⁻¹.
Turning to B4, binding was characterised by a dissociation constant (Kd) of 0.018 µM, the “Rat CTGF koff” value came to 0.00317 s⁻¹ and the “Rat CTGF kon” value came out at 176000 M⁻¹ s⁻¹.
For B5, the Kd turned out to be 0.016 µM, the “Rat CTGF koff” value turned out to be 0.00169 s⁻¹ and the “Rat CTGF kon” value came out at 105000 M⁻¹ s⁻¹.
In the case of B6, the “Rat CTGF koff” value was found to be 0.000114 s⁻¹ and the “Rat CTGF kon” value turned out to be 120000 M⁻¹ s⁻¹.

The next test has as its target T2, huWISP-3 (Homo sapiens, UniProt O95389).
T2 sequence (O95389 24-354): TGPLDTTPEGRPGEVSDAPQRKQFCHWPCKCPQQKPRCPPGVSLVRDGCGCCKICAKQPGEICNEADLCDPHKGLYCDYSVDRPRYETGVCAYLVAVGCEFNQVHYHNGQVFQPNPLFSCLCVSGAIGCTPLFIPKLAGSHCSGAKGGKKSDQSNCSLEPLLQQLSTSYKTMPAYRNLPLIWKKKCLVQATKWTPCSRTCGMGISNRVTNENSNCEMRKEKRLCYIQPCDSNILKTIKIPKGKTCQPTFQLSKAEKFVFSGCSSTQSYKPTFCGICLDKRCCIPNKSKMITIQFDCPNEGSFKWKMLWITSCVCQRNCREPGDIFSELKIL
Nature of the test: Specificity ELISA (CCN proteins), huWISP-3. The settings on record: coated 1 μg/ml; assessed when human CTGF signal approached saturation. The format is binding. How it is done: (§1) Binding of muteins to closely related proteins of CTGF was tested by an ELISA assay. In detail, a 384-well plate suitable for fluorescence measurements (Greiner FLUOTRAC™ 600, black flat bottom, high-binding) was coated with 20 μl of human CTGF or the other members of the CCN protein family at a concentration of 1 μg/ml in PBS over night at 4° C. After washing with PBS with 0.05% Tween 20, wells were blocked with 100 μl blocking buffer containing 0.1% Tween 20 and 2% BSA (PBS-T/BSA) for 1 h at room temperature. 20 μl of serially diluted muteins starting at 1000 nM were incubated in PBS-T/BSA for 1 h at room temperature (RT).
(§2) The residual supernatants were discarded and 20 μl HRP-labeled anti-NGAL or anti-Strep-Tag antibody was added at a predetermined optimal concentration in PBS-T/BSA and incubated for 1 h at RT. After washing, 20 μl fluorogenic HRP substrate (QuantaBlu, Thermo) was added to each well, and the reaction was allowed to proceed for 2 to 60 minutes. The fluorescence intensity of every well on the plate was read using a fluorescence microplate reader (Tecan). When the signal for human CTGF approached saturation, the cross reactivity to the other proteins was assessed.
For the molecule B1, the “ELISA binding to huWISP-3” value is “No binding”.
Regarding B7, the “ELISA binding to huWISP-3” value is recorded as “No binding”.
Consider B2, for which the “ELISA binding to huWISP-3” value is on record as “No binding”.
Take B3: the “ELISA binding to huWISP-3” value was “No binding”.
On the same count and under the same terms, the value for B4 was “No binding”; that for B8 was “No binding”.
Same read-out and setting: under B5 stands “No binding”; under B6, “No binding”.

The target in the next test is T3, Human CTGF with a human IgG1 Fc Tag (Homo sapiens, UniProt P29279, H83D).
T3 construct: purchased Creative Biomart
T3 sequence (P29279 with tags, fused parts or gaps H83D): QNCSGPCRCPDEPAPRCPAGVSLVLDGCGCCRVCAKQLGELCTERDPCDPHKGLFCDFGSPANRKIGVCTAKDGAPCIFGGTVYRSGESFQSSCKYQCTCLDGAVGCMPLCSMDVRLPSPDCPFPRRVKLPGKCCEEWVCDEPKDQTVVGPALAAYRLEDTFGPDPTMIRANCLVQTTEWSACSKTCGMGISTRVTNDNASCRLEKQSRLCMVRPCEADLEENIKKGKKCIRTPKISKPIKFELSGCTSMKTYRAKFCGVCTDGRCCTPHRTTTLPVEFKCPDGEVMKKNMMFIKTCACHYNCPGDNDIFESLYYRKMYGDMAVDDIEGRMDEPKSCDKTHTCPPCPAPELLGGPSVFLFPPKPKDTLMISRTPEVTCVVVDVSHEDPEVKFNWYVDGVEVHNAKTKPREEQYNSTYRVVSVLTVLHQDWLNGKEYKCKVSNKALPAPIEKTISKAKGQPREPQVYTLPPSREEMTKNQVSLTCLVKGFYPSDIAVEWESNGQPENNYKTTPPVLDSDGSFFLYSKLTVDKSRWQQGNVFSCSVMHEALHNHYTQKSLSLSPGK
Nature of the test: SPR epitope analysis (simultaneous binding).
Details: not given
How it is done: Surface plasmon resonance (SPR) was used to analyze the epitopes and determine simultaneous binding of different lipocalin muteins. Human CTGF with a human IgG1 Fc Tag was directly immobilized to a CM5 Chip (Creative Biomart, 10 μg/mL in 10 mM sodium acetate pH 4.5) until an immobilization level of 470-630 resonance units was achieved. The reference channel was activated/deactivated. […] As control, single lipocalin muteins were injected and the resulting signal of single and mixtures was compared at the end of the injection. The chip was regenerated with 3 M MgCl2 and Glycine-HCl pH1.5 for each 60 s at a flowrate of 15 μL/min.
“Yes” means simultaneous binding is possible, “no” stands for same or overlapping epitope, “n.t.” stands for not tested.
Regarding B8, the “Epitope overlap with anti-CTGF antibody of SEQ ID NOs: 60 and 61” value is on record as “overlapped”.

The same test, now with this note: SPR, mixed and injected simultaneously at 750 nM or 1000 nM.
Consider B1, for which the “Simultaneous binding with SEQ ID NO: 7” value is “no”, the “Simultaneous binding with SEQ ID NO: 9” value is “no”, the “Simultaneous binding with SEQ ID NO: 25” value was “yes” and the “Simultaneous binding with SEQ ID NO: 29” value was “yes”. In addition, the “Simultaneous binding with SEQ ID NO: 60 and 61 (control antibody)” value is on record as “no”.
As for B2, the “Simultaneous binding with SEQ ID NO: 7” value is “yes”, the “Simultaneous binding with SEQ ID NO: 9” value is “yes”, the “Simultaneous binding with SEQ ID NO: 25” value is listed as “no” and the “Simultaneous binding with SEQ ID NO: 29” value is “no”. For the same molecule, the “Simultaneous binding with SEQ ID NO: 60 and 61 (control antibody)” value was “yes”.
B3: the “Simultaneous binding with SEQ ID NO: 3” value is “no”; the “Simultaneous binding with SEQ ID NO: 60 and 61 (control antibody)” value is listed as “yes”.
Turning to B4, the “Simultaneous binding with SEQ ID NO: 7” value is reported as “yes”, the “Simultaneous binding with SEQ ID NO: 9” value is “yes”, the “Simultaneous binding with SEQ ID NO: 25” value is reported as “no” and the “Simultaneous binding with SEQ ID NO: 29” value was “no”. In addition, the “Simultaneous binding with SEQ ID NO: 60 and 61 (control antibody)” value was “yes”.
Consider B5, for which the “Simultaneous binding with SEQ ID NO: 7” value is listed as “no”, the “Simultaneous binding with SEQ ID NO: 9” value is reported as “no”, the “Simultaneous binding with SEQ ID NO: 25” value was “yes” and the “Simultaneous binding with SEQ ID NO: 29” value is on record as “yes”. The “Simultaneous binding with SEQ ID NO: 60 and 61 (control antibody)” value is on record as “no”.

In the next test the target is T4, huNOV (Homo sapiens, UniProt P48745).
T4 sequence (P48745 32-357): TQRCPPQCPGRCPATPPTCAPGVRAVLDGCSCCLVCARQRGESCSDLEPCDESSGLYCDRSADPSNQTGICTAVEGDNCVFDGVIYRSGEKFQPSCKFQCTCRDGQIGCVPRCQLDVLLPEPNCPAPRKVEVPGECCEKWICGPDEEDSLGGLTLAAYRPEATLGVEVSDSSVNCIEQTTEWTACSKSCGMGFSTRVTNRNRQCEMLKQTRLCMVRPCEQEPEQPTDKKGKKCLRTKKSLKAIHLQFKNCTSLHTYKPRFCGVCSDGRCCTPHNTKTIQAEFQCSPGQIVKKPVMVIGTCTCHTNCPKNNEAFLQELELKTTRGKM
Nature of the test: Specificity ELISA (CCN proteins), huNOV. The settings on record: coated 1 μg/ml; assessed when human CTGF signal approached saturation. The format is binding. How it is done: as §1, §2
As for B1, the “ELISA binding to huNOV” value is “No binding”.
Same read-out and setting: under B7 stands “No binding”; under B2, “No binding”.
Same read-out and setting: under B3 stands “No binding”; under B4, “No binding”; under B8, “No binding”.
As to B5, the “ELISA binding to huNOV” value is recorded as “No binding”.
Same read-out and setting: under B6 stands “No binding”.

The values are drawn from patent US20240228562A1, “NOVEL LIPOCALIN MUTEINS SPECIFIC FOR CONNECTIVE TISSUE GROWTH FACTOR (CTGF)” (PIERIS PHARMACEUTICALS GMBH, priority 2021, published 2024).
